In the supplement of paper PMC6757056:
± gives the standard deviation of the averaged measurements.

B1: library; a variant is named by its letters at N, in order (parent)
chain: GCUGUCACCGGUGUAUUACCCUAGUGGUCGACCGGUCUGAUGAGUCUNNNNNNAGACGAAACAGC

How the values were obtained:
[1] = variants of: B1; assay: FACS-Seq fitted mean relative fluorescence mCherry/BFP without ligand (log10 relative fluorescence); ligand: hypoxanthine (xanthine aptamer); higher = higher reporter protein expression; conditions: HEK293T, ligand present: no
In short: (§1)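 After lentiviral transduction, HEK293T library cells bearing an mCherry ribozyme-switch reporter and an EF1α-BFP marker were enriched. They were then held for 48 h with or without ligand and sorted by mCherry/BFP into 6 bins, and each bin's genomic DNA was PCR-amplified, barcoded and MiSeq-sequenced. Fluorescence is expressed as a normalized fitted mean: the normal mean of log10(mCherry/BFP) bin counts, scaled to five spiked-in control ribozymes.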

[2] = variants of: B1; assay: normalized RNA/DNA level with ligand (relative to sTRSVctl = 100) (log10 (% of sTRSVctl)); ligand: hypoxanthine (xanthine aptamer); higher = less ribozyme self-cleavage, higher mRNA level; conditions: ligand concentration (+) RNA-Seq: 5 mM, HEK293T, reporter: mCherry (pCS4076), ligand present: yes
In short: (§2)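 Ribozyme switch library plasmids linked to reporters were introduced into HEK293T cells at 4 µg per 6-well well, with ligand, if any, added 1 h before. Total RNA was extracted with EDTA 72 h later, reverse-transcribed, amplified, barcoded and sequenced. RNA level was computed from RNA over DNA reads relative to a spiked-in non-cleaving sequence or the top sequences, then scaled and log-transformed. The top set was 25 sequences, values were ×100 and log10, and the cutoff was ≥100 DNA reads.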

[3] = variants of: B1; assay: normalized RNA/DNA level without ligand (relative to sTRSVctl = 100) (log10 (% of sTRSVctl)); ligand: hypoxanthine (xanthine aptamer); higher = less ribozyme self-cleavage, higher mRNA level; conditions: HEK293T, reporter: mCherry (pCS4076), ligand present: no
In short: as §2

[4] = variants of: B1; assay: FACS-Seq fitted mean relative fluorescence mCherry/BFP with ligand (log10 relative fluorescence); ligand: hypoxanthine (xanthine aptamer); ligand concentration (+) FACS-Seq: 5 mM; higher = higher reporter protein expression; conditions: HEK293T, ligand present: yes
In short: as §1

Q: Which results are given for UCGUGG?
A: FACS-Seq fitted mean (log10) [1]: 0.572 ± 0.0094; normalized RNA/DNA level with ligand (log10) [2]: 1.9 ± 0.024; normalized RNA/DNA level without ligand (log10) [3]: 1.593 ± 0.0033; FACS-Seq fitted mean (log10) [4]: 0.819 ± 0.066

Q: What does the source list for ACGUGG?
A: FACS-Seq fitted mean (log10) [1]: 0.0467 ± 0.0087; normalized RNA/DNA level with ligand (log10) [2]: 1.54 ± 0.018; normalized RNA/DNA level without ligand (log10) [3]: 1.13 ± 0.016; FACS-Seq fitted mean (log10) [4]: 0.697 ± 0.018

Q: How did the “FACS-Seq fitted mean (log10)” value [1] turn out when CCGUGU was run?
A: The value was 0.225 ± 0.038.

Q: What about the “normalized RNA/DNA level with ligand (log10)” value [2] of the same variant?
A: The value was 1.89 ± 0.12.

Q: What about the “normalized RNA/DNA level without ligand (log10)” value [3] of the same variant?
A: The value was 1.69 ± 0.017.

Q: And the “FACS-Seq fitted mean (log10)” value [4]?
A: The value was 0.616 ± 0.025.

Q: What does the source list for GCGUGU?
A: FACS-Seq fitted mean (log10) [1]: 0.0904 ± 0.007; normalized RNA/DNA level with ligand (log10) [2]: 1.84 ± 0.049; normalized RNA/DNA level without ligand (log10) [3]: 1.42 ± 0.039; FACS-Seq fitted mean (log10) [4]: 0.45 ± 0.049

Q: For ACGUGU, which “FACS-Seq fitted mean (log10)” value [1] is on record?
A: The value was 0.135 ± 0.003.

Q: And the “normalized RNA/DNA level with ligand (log10)” value [2]?
A: The value was 1.87 ± 0.047.

Q: And the “normalized RNA/DNA level without ligand (log10)” value [3]?
A: Its value is 1.4 ± 0.027.

Q: What about the “FACS-Seq fitted mean (log10)” value [4] of the same variant?
A: The value was 0.682 ± 0.074.

Q: GCGUUA was tested. Which “FACS-Seq fitted mean (log10)” value [1] did it give?
A: The value was 0.535 ± 0.018.

Q: And the “normalized RNA/DNA level with ligand (log10)” value [2]?
A: The value was 1.94 ± 0.037.

Q: And the “normalized RNA/DNA level without ligand (log10)” value [3]?
A: Its value is 1.65 ± 0.073.

Q: And the “FACS-Seq fitted mean (log10)” value [4]?
A: The value was 0.594 ± 0.022.

Q: Which results are given for GCGUUG?
A: FACS-Seq fitted mean (log10) [1]: 0.142 ± 0.042; normalized RNA/DNA level with ligand (log10) [2]: 1.78 ± 0.034; normalized RNA/DNA level without ligand (log10) [3]: 1.3 ± 0.027; FACS-Seq fitted mean (log10) [4]: 0.658 ± 0.021

Q: ACGUUG was tested. Which “FACS-Seq fitted mean (log10)” value [1] did it give?
A: Its value is -0.189 ± 0.0052.

Q: And the “normalized RNA/DNA level with ligand (log10)” value [2]?
A: The value was 1.79 ± 0.033.

Q: And the “normalized RNA/DNA level without ligand (log10)” value [3]?
A: The value was 1.28 ± 0.019.

Q: And the “FACS-Seq fitted mean (log10)” value [4]?
A: Its value is 0.488 ± 0.021.

Q: Which “FACS-Seq fitted mean (log10)” value [1] does the source give for CCUAAA here?
A: Its value is 0.725 ± 0.1.

Q: What about the “normalized RNA/DNA level with ligand (log10)” value [2] of the same variant?
A: The value was 1.95 ± 0.035.

Q: What about the “normalized RNA/DNA level without ligand (log10)” value [3] of the same variant?
A: The value was 1.84 ± 0.019.

Q: What about the “FACS-Seq fitted mean (log10)” value [4] of the same variant?
A: The value was 0.615 ± 0.021.

Q: Which “FACS-Seq fitted mean (log10)” value [1] does the source give for UCUAAA here?
A: Its value is 0.325 ± 0.034.

Q: And the “normalized RNA/DNA level with ligand (log10)” value [2]?
A: Its value is 1.96 ± 0.035.

Q: What about the “normalized RNA/DNA level without ligand (log10)” value [3] of the same variant?
A: Its value is 1.79 ± 0.062.

Q: What about the “FACS-Seq fitted mean (log10)” value [4] of the same variant?
A: The value was 0.0897 ± 0.011.

Q: For ACUAAA, which “FACS-Seq fitted mean (log10)” value [1] is on record?
A: Its value is 0.324 ± 0.083.

Q: And the “normalized RNA/DNA level with ligand (log10)” value [2]?
A: Its value is 1.897 ± 0.0002.

Q: What about the “normalized RNA/DNA level without ligand (log10)” value [3] of the same variant?
A: The value was 1.76 ± 0.018.

Q: And the “FACS-Seq fitted mean (log10)” value [4]?
A: Its value is 0.54 ± 0.027.

Q: GCUAAC was tested. Which “FACS-Seq fitted mean (log10)” value [1] did it give?
A: Its value is 0.101 ± 0.032.

Q: And the “normalized RNA/DNA level with ligand (log10)” value [2]?
A: Its value is 1.93 ± 0.036.

Q: And the “normalized RNA/DNA level without ligand (log10)” value [3]?
A: Its value is 1.66 ± 0.036.

Q: What about the “FACS-Seq fitted mean (log10)” value [4] of the same variant?
A: The value was -0.141 ± 0.025.

Q: What does the source list for ACUAAC?
A: FACS-Seq fitted mean (log10) [1]: -0.0807 ± 0.092; normalized RNA/DNA level with ligand (log10) [2]: 1.95 ± 0.057; normalized RNA/DNA level without ligand (log10) [3]: 1.8 ± 0.041; FACS-Seq fitted mean (log10) [4]: 0.0498 ± 0.032

Q: How did the “FACS-Seq fitted mean (log10)” value [1] turn out when GCUAAG was run?
A: The value was -0.184 ± 0.019.

Q: And the “normalized RNA/DNA level with ligand (log10)” value [2]?
A: Its value is 1.838 ± 0.0086.

Q: And the “normalized RNA/DNA level without ligand (log10)” value [3]?
A: Its value is 1.421 ± 0.0074.

Q: And the “FACS-Seq fitted mean (log10)” value [4]?
A: The value was 0.199 ± 0.03.

Q: For UCUAAG, which “FACS-Seq fitted mean (log10)” value [1] is on record?
A: Its value is 0.59 ± 0.091.

Q: And the “normalized RNA/DNA level with ligand (log10)” value [2]?
A: The value was 1.9502 ± 0.0012.

Q: And the “normalized RNA/DNA level without ligand (log10)” value [3]?
A: Its value is 1.7 ± 0.088.

Q: What about the “FACS-Seq fitted mean (log10)” value [4] of the same variant?
A: The value was 0.678 ± 0.094.

Q: For ACUAAG, which “FACS-Seq fitted mean (log10)” value [1] is on record?
A: The value was -0.0198 ± 0.018.

Q: And the “normalized RNA/DNA level with ligand (log10)” value [2]?
A: Its value is 1.833 ± 0.017.

Q: What about the “normalized RNA/DNA level without ligand (log10)” value [3] of the same variant?
A: Its value is 1.5247 ± 0.0014.

Q: What about the “FACS-Seq fitted mean (log10)” value [4] of the same variant?
A: Its value is 0.236 ± 0.15.

Q: GCUAAU was tested. Which “FACS-Seq fitted mean (log10)” value [1] did it give?
A: Its value is 0.665 ± 0.11.

Q: What about the “normalized RNA/DNA level with ligand (log10)” value [2] of the same variant?
A: The value was 1.93 ± 0.052.

Q: And the “normalized RNA/DNA level without ligand (log10)” value [3]?
A: The value was 1.788 ± 0.012.

Q: And the “FACS-Seq fitted mean (log10)” value [4]?
A: The value was 0.7639 ± 0.0062.

Q: How did the “FACS-Seq fitted mean (log10)” value [1] turn out when UCUAAU was run?
A: The value was 0.308 ± 0.028.

Q: And the “normalized RNA/DNA level with ligand (log10)” value [2]?
A: The value was 1.92 ± 0.022.

Q: And the “normalized RNA/DNA level without ligand (log10)” value [3]?
A: The value was 1.79 ± 0.039.

Q: And the “FACS-Seq fitted mean (log10)” value [4]?
A: Its value is 0.511 ± 0.032.
